Test results published in patent publication US20100167390, “Novel Oligonucleotide and NF-kB Decoy Comprising the Same” (published 2010).

T1: NF-kB p52 (NFKB2) (UniProt Q00653 Q00653:1-454)
T1 sequence: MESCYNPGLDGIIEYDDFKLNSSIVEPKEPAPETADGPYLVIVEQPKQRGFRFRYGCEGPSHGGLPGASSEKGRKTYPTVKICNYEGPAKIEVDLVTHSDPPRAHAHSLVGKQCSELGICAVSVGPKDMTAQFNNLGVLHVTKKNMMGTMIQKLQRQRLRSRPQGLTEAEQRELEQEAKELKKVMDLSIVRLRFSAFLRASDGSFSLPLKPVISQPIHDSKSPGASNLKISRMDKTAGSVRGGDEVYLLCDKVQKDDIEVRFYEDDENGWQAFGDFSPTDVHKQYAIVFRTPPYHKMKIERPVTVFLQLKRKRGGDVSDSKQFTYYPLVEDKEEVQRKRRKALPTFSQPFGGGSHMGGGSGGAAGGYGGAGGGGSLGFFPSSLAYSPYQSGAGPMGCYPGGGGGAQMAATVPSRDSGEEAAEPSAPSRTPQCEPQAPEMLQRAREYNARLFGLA

B1: PSODN17 (dsDNA)
DNA 1: CCCTGGGATTTCCCGCC
DNA 2: GGCGGGAAATCCCAGGG
modifications: PS only within consensus gggatttccc, both strands
B2: PSODN16 (dsDNA)
DNA 1: CGCAGGGATTTCCCGCG
DNA 2: CGCGGGAAATCCCTGCG
modifications: PS only within consensus gggatttccc, both strands
B3: SODN27 (dsDNA)
DNA 1: CGCAGGGATTTCCCGCGC
DNA 2: GCGCGGGAAATCCCTGCG
modifications: PS all bonds, both strands
B4: SODN30 (dsDNA)
DNA 1: GGCTGGGATTTCCCGCGG
DNA 2: CCGCGGGAAATCCCAGCC
modifications: PS all bonds, both strands
B5: SODN6 (dsDNA)
DNA 1: CGAGGGATTTCCCGGC
DNA 2: GCCGGGAAATCCCTCG
modifications: PS all bonds, both strands
B6: SODN7 (dsDNA)
DNA 1: CGCGGGATTTCCCAGC
DNA 2: GCTGGGAAATCCCGCG
modifications: PS all bonds, both strands
B7: FSODN16 (dsDNA)
DNA 1: CGCAGGGATTTCCCGCG
DNA 2: CGCGGGAAATCCCTGCG
modifications: PS only in flanks and flank-core bonds
B8: PSODN8 (dsDNA)
DNA 1: CCCGGGATTTCCCACC
DNA 2: GGTGGGAAATCCCGGG
modifications: PS only within consensus gggatttccc, both strands
B9: Control decoy (conventional NF-kB decoy) (dsDNA)
DNA 1: CCTTGAAGGGATTTCCCTCC
DNA 2: GGAGGGAAATCCCTTCAAGG
modifications: PS all bonds, both strands

Tests used:
NF-kB p65 (RelA) [1] = biological target: T2, NF-kB p65 (RelA) (UniProt Q04206 Q04206:1-551); assay: competition; conditions: protein: extract; tags: TPA and CI-stimulated Jurkat nuclear extract, Active Motif TransAM kit
Description: The binding capacity of each SODN to NF-κB was evaluated by measuring the remaining free NF-κB after reacting each SODN with NF-κB (p65), using a commercially available kit (TransAM Kit (NF-κB, p65, ACTIVE MOTIF) for measuring NF-κB, and using NF-κB molecules in the Jurkat, TPA and CI-Stimulated, Nuclear Extract (nuclear extract of Jurkat cells stimulated with a phorbol ester (TPA) and a calcium ionophore (CI)). The measurement was performed in accordance with the instructions attached to the kit. The kit was made for quantifying the NF-κB bound to the solid phase by ELISA after adding an NF-κB solution to the wells in which the NF-κB (p65 protein) consensus binding sequence was immobilized and after washing the resultant. By this measurement method, the higher the binding capacity of the oligonucleotide to the NF-κB, the smaller amount of the NF-κB quantified by the ELISA.
More concretely, the above-described measurement was carried out as follows concretely: Each SODN solution was serially diluted with Complete Binding Buffer contained in the kit to prepare test samples (common ratio: 3-fold, 4 times, n=3). To each well, 30 μL of the test sample was added. To the wells of the control and blank, Complete Binding Buffer was added. To each well, 20 μL of the Jurkat, TPA and CI-Stimulated, Nuclear Extract contained in the kit, after dilution with Complete Lysis Buffer to a concentration of 125 μg/mL, was added. To the wells of the blank, Complete Lysis Buffer was added. After incubation for 1 hour with shaking, each well was washed with 1× Wash Buffer contained in the kit, and an anti-NF-κB (p65 protein) antibody was added, followed by incubation for 1 hour. Each well was washed with 1× Wash Buffer, and the Developing Solution contained in the kit was added. After allowing coloration for 10 minutes, the Stop Solution was added to stop the reaction, and the absorbances at 450 nm and 630 nm were measured.
The binding capacities of the partially phosphorothioated oligonucleotides (the bonds between only all of the nucleotides constituting the consensus sequence in both strands are phosphorothioated, hereinafter also referred to as “PSODN”) of SODNs 7, 8, 9, 16, 17 and 30 of the present invention to the NF-κB (p65 protein) were tested in the same manner as described above.

NF-kB p52 (NFKB2) = biological target: T1, NF-kB p52 (NFKB2); assay: competition; conditions: protein: extract; tags: Raji nuclear extract, Active Motif
Description: (§1) The study was carried out in basically the same manner as in the above-described primary screening. The activities to inhibit the binding of various NF-κB family proteins to the consensus NF-κB binding site were compared under the conditions of common ratio of 3-fold, 6 times, n=2. As a control for comparison, fully phosphorothioated decoy oligonucleotide […] (SEQ ID NO:103) was used. The binding inhibition tests against various NF-κB family proteins were conducted using NF-κB Family TransAM Kit (ACTIVE MOTIF), and using NF-κB molecules in the Jurkat, TPA and CI-Stimulated, Nuclear Extract (ACTIVE MOTIF) for p50, and using NF-κB molecules in the Raji nuclear extract (ACTIVE MOTIF) for Rel-B and p52. As the primary antibodies, anti-NF-κB p50 antibody, anti-NF-κB p52 antibody and anti-Rel-B antibody were used, respectively, and the secondary antibody was HRP-labeled anti-rabbit IgG antibody in all cases.
(§2) More concretely, the above-described measurements were carried out as follows: Each oligonucleotide solution was serially diluted with Complete Binding Buffer to prepare test samples. Each of the test samples was added to the wells in an amount of 30 μL per well, and Complete Binding Buffer was added to the wells of the control and blank. Nuclear extract diluted with Complete Lysis Buffer was added to the wells in an amount of 20 μL per well, and Complete Lysis Buffer was added to the wells of blank. After incubation for 1 hour with shaking, each well was washed with 1× Wash Buffer, and the primary antibody was added, followed by incubation for 1 hour. Each well was washed with 1× Wash Buffer, and the secondary antibody was added, followed by incubation for 1 hour. Each well was washed with 1× Wash Buffer, and the Developing Solution was added. After allowing coloration for 10 minutes, the Stop Solution was added to stop the reaction, and the absorbances at 450 nm and 630 nm were measured.
(§3) The absorbance at 630 nm was subtracted from the absorbance at 450 nm and the mean value of the blanks was further subtracted from the resultant, and the percentage of the mean value of each concentration based on the mean value of the controls was calculated.

NF-kB p50 (NFKB1) = NF-kB p50 (NFKB1) (UniProt P19838 P19838:1-433); assay: competition; conditions: protein: extract; tags: TPA and CI-stimulated Jurkat nuclear extract, Active Motif
Description: as §1, §2, §3

NF-kB p65 (RelA) [2] = biological target: T2, NF-kB p65 (RelA); assay: competition; primary screen 2.23; conditions: protein: extract; tags: TPA and CI-stimulated Jurkat nuclear extract, Active Motif TransAM kit
Description: (§4) The measurement was performed in accordance with the instructions attached to the kit. The kit was made for quantifying the NF-κB bound to the solid phase by ELISA after adding an NF-κB solution to the wells in which the NF-κB (p65 protein) consensus binding sequence was immobilized and after washing the resultant. By this measurement method, the higher the binding capacity of the oligonucleotide to the NF-κB, the smaller amount of the NF-κB quantified by the ELISA.
(§5) More concretely, the above-described measurement was carried out as follows concretely: Each SODN solution was serially diluted with Complete Binding Buffer contained in the kit to prepare test samples (common ratio: 3-fold, 4 times, n=3). […] After allowing coloration for 10 minutes, the Stop Solution was added to stop the reaction, and the absorbances at 450 nm and 630 nm were measured.
(§6) The absorbance at 630 nm was subtracted from the absorbance at 450 nm and the mean value of the blanks was further subtracted from the resultant, and the percentage of the mean value of each concentration based on the mean value of the controls was calculated. The concentration at which the calculated value was 50% (i.e., at which the binding was inhibited by 50%) was calculated from the regression lines between two points interposing 50% (an analysis software Graph Pad PRISM 4, GraphPad SOFTWARE was used). […]

NF-kB p65 (RelA) [3] = biological target: T2, NF-kB p65 (RelA); assay: competition; primary screen 1.33; conditions: protein: extract; tags: TPA and CI-stimulated Jurkat nuclear extract, Active Motif TransAM kit
Description: as §4, §5, §6

NF-kB p65 (RelA) [4] = biological target: T2, NF-kB p65 (RelA); assay: competition; primary screen 1.31; conditions: protein: extract; tags: TPA and CI-stimulated Jurkat nuclear extract, Active Motif TransAM kit
Description: as §4, §5, §6

NF-kB p65 (RelA) [5] = biological target: T2, NF-kB p65 (RelA); assay: competition; primary screen 1.61; conditions: protein: extract; tags: TPA and CI-stimulated Jurkat nuclear extract, Active Motif TransAM kit
Description: as §4, §5, §6

NF-kB p65 (RelA) [6] = biological target: T2, NF-kB p65 (RelA); assay: competition; conditions: protein: extract; tags: TPA and CI-stimulated Jurkat nuclear extract, Active Motif TransAM kit; remark: listed apart in the source
Description: To study the influence by the phosphorothioation site in the oligonucleotide sequence, decoy oligonucleotides (FSODN) in which only the flanking sequences were phosphorothioated and decoy oligonucleotides (ODN) without phosphorothioation having the same sequences, respectively, were synthesized. The binding inhibition activities were compared under the conditions of common ratio of 3-fold, 6 times, n=2. The binding inhibition tests against NF-κB p65 protein was carried out using NF-κB, p65 TransAM Kit (produced by ACTIVE MOTIF), and using NF-κB protein molecules in the Jurkat, TPA and CI-Stimulated, Nuclear
Extract (produced by ACTIVE MOTIF). The testing method was the same as in the above-described Example 5. The term “only the flanking sequences were phosphorothioated” means that the bonds in the flanking sequences and the bonds between the respective flanking sequences and the core were phosphorothioated. For example, as for Sequence 7, it is CsGsCs[…]sAsGsC. The values for PSODNs are those obtained in the secondary screening (above-described Table 4).

NF-kB p65 (RelA) [7] = biological target: T2, NF-kB p65 (RelA); assay: competition; ELISA competition with immobilized consensus site; 4.77 in Table 3-2, 4.93 in Table 4; Table 7 lists 4.93, 4.30, 3.24 in PSODN, FSODN, ODN columns; conditions: protein: extract; tags: TPA and CI-stimulated Jurkat nuclear extract, Active Motif TransAM kit

T2 sequence (Q04206 whole entry, one chain of several): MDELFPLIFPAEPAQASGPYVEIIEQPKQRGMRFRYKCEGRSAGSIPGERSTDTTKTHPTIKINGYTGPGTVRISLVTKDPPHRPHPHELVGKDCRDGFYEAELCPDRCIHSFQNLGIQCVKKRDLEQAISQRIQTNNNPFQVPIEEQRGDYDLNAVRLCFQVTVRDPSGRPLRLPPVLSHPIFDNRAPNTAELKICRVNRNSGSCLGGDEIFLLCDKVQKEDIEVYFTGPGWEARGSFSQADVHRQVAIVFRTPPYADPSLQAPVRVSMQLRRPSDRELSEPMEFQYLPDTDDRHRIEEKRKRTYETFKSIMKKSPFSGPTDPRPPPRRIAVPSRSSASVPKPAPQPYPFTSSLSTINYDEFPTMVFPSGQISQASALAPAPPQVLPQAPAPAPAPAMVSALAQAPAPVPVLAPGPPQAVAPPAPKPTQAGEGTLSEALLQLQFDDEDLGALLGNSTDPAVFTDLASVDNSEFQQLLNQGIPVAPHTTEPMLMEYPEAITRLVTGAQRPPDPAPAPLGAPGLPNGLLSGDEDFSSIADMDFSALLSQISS
Sequence of NF-kB p50 (NFKB1) (P19838 1-433, one chain of several): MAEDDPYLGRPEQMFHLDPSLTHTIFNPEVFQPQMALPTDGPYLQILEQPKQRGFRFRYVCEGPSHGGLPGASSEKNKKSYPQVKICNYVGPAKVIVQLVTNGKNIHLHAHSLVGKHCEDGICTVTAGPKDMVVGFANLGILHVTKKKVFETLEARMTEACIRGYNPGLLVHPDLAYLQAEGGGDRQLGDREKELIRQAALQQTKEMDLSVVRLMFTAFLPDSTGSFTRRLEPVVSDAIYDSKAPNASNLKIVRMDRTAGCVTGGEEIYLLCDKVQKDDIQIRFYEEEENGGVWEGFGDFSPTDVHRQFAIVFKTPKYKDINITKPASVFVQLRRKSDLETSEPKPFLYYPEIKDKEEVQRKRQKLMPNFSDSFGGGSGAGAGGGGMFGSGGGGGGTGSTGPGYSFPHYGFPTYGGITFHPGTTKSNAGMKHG

Row | Binder | IC50 (NF-kB p65 (RelA) [1]) | IC50 (NF-kB p52 (NFKB2)) | IC50 (NF-kB p50 (NFKB1)) | also measured
1 | B1 | 0.48 nM | 4.29 nM | 0.91 nM | 
2 | B2 | 0.41 nM | 2.37 nM | 0.8 nM | 
3 | B3 |  |  |  | IC50 (NF-kB p65 (RelA) [2]): 2.87 nM
4 | B4 |  |  |  | IC50 (NF-kB p65 (RelA) [3]): 1.87 nM
5 | B5 |  |  |  | IC50 (NF-kB p65 (RelA) [4]): 2.33 nM
6 | B6 |  |  |  | IC50 (NF-kB p65 (RelA) [5]): 1.75 nM
7 | B7 |  |  |  | IC50 (NF-kB p65 (RelA) [6]): 1.11 nM
8 | B8 | 0.63 nM | 3.22 nM | 1.08 nM | 
9 | B9 |  | 8.42 nM | 8.45 nM | IC50 (NF-kB p65 (RelA) [7]): 5.26 nM
